Measured values published in the nanobody polyreactivity screen of Harvey et al. (2022).

Assay: yeast display, Sf9 membrane polyspecificity reagent, FACS + sequencing; frameworks hold sequencing errors
How it was run: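 Polyreactivity labels are assigned by the sorting gate from which each nanobody was recovered. The gates were low and high (top ~1%), set on anti-HA fluorescence for expression and streptavidin fluorescence for reagent binding. Before sorting, galactose-induced (36–48 hours) yeast display cells were stained for 1 hour at 4 °C with 10% biotinylated, detergent-solubilized Sf9 membrane reagent.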

Sequence | polyreactivity (PSR sort gate)
QVQLVESGGGLVQAGGSLRLSCAASGFTIAYNAMGWYRQAPGKERDLVAAISSSGGRTYYADSVKGRFTISRDNAKNTVYFQMNSLKPEDTAVYYCATRPKVAYEYVYWGQGTQVTVSS | high polyreactivity
QVQLVESGGGLVQAGGSLRLSCAASGSTFPYYVMGRYRQAPGKERELVAAITRSTGTTYYADSVKGRFTISRDNAKNTVYLQMNSLKPEDTAVYYCAARSSSSPRWYGGDYWGQGTQVTVSS | low polyreactivity
QVQLVESGGGLVHAGGSLRLSCAASGFTFRGYAMGWYRPSPGKEREFVAAISRSGGSTNYADSVKGRFTISRDNAKNTVYLQMNSLKPEDTAVYYCAAGWNPYDYWGQGTQVTVSS | high polyreactivity
QVQLVESGGGLVQAGGSLRLSCAASGSTFPPYAMGWYRPAPGKGRELVAAISYRDTGTYYADSVKGRFTISRDNAKNTVYLQMNSLKPEDTAVYYCAADYLIVYYFLYYYWGQGTPVTVSS | low polyreactivity
QVQLVESGGGLVQAGGSLRLSCAASGSTFAFYAMGWYRQAPGKEREFVAAITWDGGTTYYADSVKGRFTISLDNAKNTVYLQMNSLKPEDTAVYYCATQYLSYLYAGRYDYWGQGTQVTVSS | low polyreactivity
QVQLVESGGGLVQAGCSLRLSCAASGRIFWDNAMGWYRQAPGKERELVAAIDYRGGNTNYADSVKGRFTISRDNAKNTVYLQMNSLKPEDTAVYYCNAEWAVRYPGYDYWGQGTQVTVSS | low polyreactivity
QVQLVETGGGLVQAGGSLRLSCAASGRIFGSYAMGWYRQAPGKERELVASIRSGGRTKYADSVKGRFTISRDNAKNTVYFQMNSLKPEDTAVYYCAVPIEWDYGYWGQGTQVTVSS | low polyreactivity
QVQLGESGGGLVQAGGSLRLSCAASGSTFVGSAMGWYIQAPGKDRELVAAISYSGGSTYYADSVKGRFTISRDNAKNTVYLQMNSLKPEDTAVYYCAAEWSRHYYYGPRYHYWGQGTQVTVSS | low polyreactivity
QVQLVESGGGLVQAGGSLRLSCAASGSIFGINAMGWYRPAPGKERQLVAAISGSTSRSYYADSVKGRFTISRDNAKNTVYLQMNSLKPEDTAVYYCAVVGLRSVTRRSYYWGQGTQVTVSS | high polyreactivity
QVQLVESGGGLVQAGGSLRLSCAASGFTFDKYAMGWYRQAPGKESELVAAISRGGGTKYADSVKGRFTISRDNAKNTVYLQMNSLKPEDTAVYYCVAKFRPDLSRGAYEYWGQGTQVTVSS | high polyreactivity
QVQLVESGGGLVQAGGSLRLSCAASGGTLWVNTMGWYRQAPGKERELVAAISRRGGSTYYADSVKGRFTISRDNAKNTVYLQKNSLKPEDTAVYYCAKGYSSHYWWAYDSWGQGTQVTVSS | high polyreactivity
QVQLVESGGGLVQAGGSLRISCAASGLIFADYTMGWYRQAPGKERDLVAVITDGDSTYYADSVKGRFTISRDNAKNTVYLQMNSLKPEDTAVYYCAAELDGSNYTLDYWGQGTQVTVST | low polyreactivity
QVQLLESGGGLVQAGGSLRLSCAASGSIFYPYAMGWHRQAPGKERELVAAISYSGGSTYYADSVKGSFTISRDNAKNTVYLQMNSLKPEDSAVYYCAASVFRGSATYDSWGQGTHVTVSS | high polyreactivity
QVQLVESGGGLVQAGGSLRLSCAASGRIFTYYAMGWYRQAPGKEREFVAAISRSGGSTYYADSVKGRFTISRDNAKNTVYFQMNSLKPEDTAVYSCAADPPYRGRRGFDHNYWGQGTQVTVSS | high polyreactivity
QVHLGDSGGGLVQAGGSLRLSCAASGRIFWTYAMGWYRQAPGKERELVAAIRWSSGSTRYADSVKGRFTISRDNAKNTVYLQLNSVKPEDTAVYYCAADAFRSQRPYTYDYWGQGTQVTVSS | high polyreactivity
QVQLVESGGGLVQAGGSLRLSCAASGITFGYNAMGWYRQAPGTEREFVAGISWSGGSTYYADSVKGRFTISRDNAKNTVYLQMNSLKPEDTAVYYCAKLARGGWYGGGRSLSYGYWGQGTQVTVSS | high polyreactivity

Sequence | polyreactivity (PSR sort gate)
QVQLVESGGGLVQAGGSLRLSCAASGNIFDQNAMGWYRQAPAKERELVAAITRSGSTTYYADSVKGRFTISRDNAKNTVYLQMNSLKPEDTAVYYCAAKVYAYRTYKMYYWGEGTQVTVSS | high polyreactivity
QVQLVESGGGLVQAGGSLRLSCAASGFTFPRYAMGWYRQAPGKERELVAAISYRGGSTYYADSVKGRFTISRDTAKNTVYLQMNSLKPEDTAVSYCNAVGGPVRGYPYDYWGQGTQVTVSS | high polyreactivity
QVQLVESGGCLVQAGGSLRLSCAASGRIFTYYGMGWYRQAPGKERELVAAITRSGGSTRYADSVKGRFTISRDNSKNTVYLQMNSLKPEDTAVYYCNAGGYWRYDYWGQGTQVTVSS | low polyreactivity
QVQLVESGGGLVQAGGSLRLSCAASGYTFHGYAMGWYRQAPGKERELVAVITQRGGSTSYADSVKGRFTISRDNAKNTVYLQMNSLKPEDTAVYYCEYYYWGQGTQVTVSS | low polyreactivity
QVQLVESGGGLVQAGGSLRLSCAASGITFGSYDMGWYRQAPGKERELVAAIDSDGGTYYADSVKGRFTISRDNAKNTVYLQMNSLKPEDTAVYYCAALLRSFPPYSFYYWGQGTQVTVSS | high polyreactivity
QVQLVESGGGLVQAGGSLRLSCAASGSTFIYNTMGSYRQAPGKERELVAAISGSGGRTYYADSVKGRFTISRDNAKNTVYLQMNSLKPEDTAVYYCAARYYTKLYWGQGTQVTVSS | high polyreactivity
QVQLVESGGGLVQTGGSLRLSCAASGRIFFDNAMGWYRQAPGKERELVAGIDSGGSTYYADSVKGRFTISRDNAKNTVYLQMNSLKPEDTAVYYCNSDYPPSTQSPLLQSYDYWGQGTQVTVSS | low polyreactivity
QVQLHESGCGLVQAGGSLRLSCAASGTISYAGPMGWYRPAPGNEREFVAGIGVGSNTNYADSVKGRYTIIRDNATNTVYLQMNSLKPEDTAVYYCAVGGYAPLGRPYWGQGTQVTVSS | low polyreactivity
QVQLVESRGGLVQAGGSLRLSCAASGFTFWDNVIGWYRQAPGKERELVAAISNSGGRTYYADSVKGRFTISRDNEKNTVYLQMNILKPEDTAVYYCARYGRRHGYPILDYWGQGTQVTVSS | high polyreactivity
QVQLVESGGGLVQAGGSLRLSCAASGFTFAYYAMGWYRQAPGKERELVAAISSRGGSTYYADSVKGRFTISRDNAKNTVYLQMNSLKPEDTAVYYCAAEFGLWPYEYGYWGQGTQVTVSS | high polyreactivity
QVQLVESGGGLVQAGGSLRLSCAASGSIFPYNAMGWYRQAPGKERELVATISSGGSTNYADSVKGRFTISRDNAKNTVYLQMNSLKPEDTAVYYCAADVIVFYYAPNYWVDIEYGYWGQGTQVTVSS | low polyreactivity
QVQLQESGDGLVQAVGSLRLSCAASGYISGYYYMGWYRQAPGKERELVAGIDAFGSSTNYADCVKGRFTISRDNATHTVYLQMNSLKPEDTAVYYCAARPDGDRLFSYWGQGTQVTVSS | low polyreactivity
QVQLVESGGGLVQAGGSLRLSCAASGITLYYNAMGWYRQAPGKESELVAAITWSGSRTYYADSVKGRFTISRDNAKNTVYLQMNSLKPEDTAVSYCAADVDFWNTVEDMDYWGQGNQVTVSS | low polyreactivity
QVQLVESGGGLVQAGGSLRLSCAGSGFTFGYYAMGWSRPAPGKERELVAAMSWNGGRTYYADSVKGRFTISRDNAKNTVYLQLNSLKPEDTAVYSCAADYRFYSPTKYSYDDWGQGTQVTVSS | high polyreactivity
QVQLVESGRGLVQAGGSLRLSCAASGRTIKYYAMGWYRQAPGKDRELVAVISWSGGSTYYADSVKGRFTISRDNAKNTVYLQMNSLKPEDTAVYYCNAYVYAYYAGYNYWGQGTQLTVSS | high polyreactivity
QVQLVESGGGLVQAGGSLRLSCAASGRIFGQYAMGWYRQAPGKERELVASISRRGGSTNYADSVKGRFTISRDNAKNTVYLQMNSLKPEDSAVYYCAARTWRRQYYRTRYEYWGQGTQVNVSS | high polyreactivity
